Reference: the supplement of paper PMC7877785
± gives the uncertainty stated by the source.

Assay: self-splicing fitness, log relative to wild type (ln ratio); higher = more splicing; Tetrahymena group I intron in knt gene, E. coli kanamycin selection, DiMSum; sequences stand for … in CUCUCU…GGAGGGAAAAGUUAUCAGGCAUGCACCUGGUAGCUAGUCUUUAAACCAAUAGAUUGCAUCGGUUUAAAAGGCAAGACCGUCAAAUUGCGGGAAAGGGGUCAACAGCCGUUCAGUACCAAGUCUCAGGGGAAACUUUGAGAUGGCCUUGCAAAGGGUAUGGUAAUAAGCUGACGGACAUGGUCCUAACCACGCAGCCAAGUCCUAAGUCAACAGAUCUUCUGUUGAUAUGGAUGCAGUUCACAGACUAAAUGUCGGUCGGGGAAGAUGUAUUCUUCUCAUAAGAUAUAGUCGGACCUCUCCUUAAUGGGAGCUAGCGGAUGAAGUGAUGCAACACUGGAGCCGCUGGGAACUAAUUUGUAUGCGAAAGUAUAUUGAUUAGUUUUGGAGUACUCGUGGUCG
In short: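 Library with all eight P1ex-region intron nucleotides randomised, intron inside the knt kanamycin-resistance gene on pET-22b(+), in E. coli BL21(DE3). Cells grew overnight at 37°C or 30°C on LB agar with or without 25 μg/mL kanamycin (plus 100 μg/mL carbenicillin, 50 μM IPTG, 0.2% rhamnose), in six replicate transformations. Pooled colonies were amplicon-sequenced on Illumina HiSeq 2500. DiMSum fitness is the error-weighted combination of wild-type-normalised replicate fold changes, kanamycin versus none.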

| Sequence | self-splicing fitness (ln) (30 °C) | self-splicing fitness (ln) (37 °C) |
| --- | --- | --- |
| CGCGAGCAAUAUUACGGUGG | -2.1 ± 0.1 | -1.43 ± 0.13 |
| CGCGAGCAAUAUUACGUAAA | -3.8 ± 0.19 | -2.78 ± 0.15 |
| CGCGAGCAAUAUUACGUCUU | -2.32 ± 0.2 | -2.05 ± 0.24 |
| CGCGAGCAAUAUUACGUGAU | -2.82 ± 0.23 | -3.59 ± 0.37 |
| CGCGAGCAAUAUUACGUGCC | -3.8 ± 0.42 | -2.96 ± 0.48 |
| CGCGAGCAAUAUUACGUGGG | -3.81 ± 0.29 | -2.54 ± 0.21 |
| CGCGAGCAAUAUUACGUUGA | -3.51 ± 0.25 | -2.05 ± 0.2 |
| CGCUAGCAAUAUUACGAACA | -0.88 ± 0.11 | -0.227 ± 0.14 |
| CGCUAGCAAUAUUACGACAG | -0.148 ± 0.059 | 0.297 ± 0.076 |
| CGCUAGCAAUAUUACGACCA | -1.86 ± 0.093 | -1.24 ± 0.12 |
| CGCUAGCAAUAUUACGAUGU | -2.56 ± 0.11 | -1 ± 0.11 |
| CGCUAGCAAUAUUACGCAAU | -2.44 ± 0.3 | -2.09 ± 0.36 |
| CGCUAGCAAUAUUACGCAGC | – | -2.8 ± 0.33 |
| CGCUAGCAAUAUUACGCCGA | -0.916 ± 0.21 | -0.258 ± 0.15 |
| CGCUAGCAAUAUUACGCUUA | -3.03 ± 0.33 | -2.75 ± 0.27 |
| CGCUAGCAAUAUUACGGAUC | -3.32 ± 0.24 | -1.14 ± 0.15 |
| CGCUAGCAAUAUUACGGGAA | -3.1 ± 0.22 | -2.76 ± 0.26 |
| CGCUAGCAAUAUUACGGGCA | -0.187 ± 0.07 | -0.269 ± 0.079 |
| CGCUAGCAAUAUUACGGUAA | -1.73 ± 0.1 | -2.12 ± 0.11 |
| CGCUAGCAAUAUUACGGUAC | -3.35 ± 0.23 | -1.95 ± 0.22 |
| CGCUAGCAAUAUUACGGUCA | -0.0527 ± 0.076 | 0.137 ± 0.079 |
| CGCUAGCAAUAUUACGGUUA | -2.22 ± 0.23 | -1.82 ± 0.2 |
| CGCUAGCAAUAUUACGUAAG | -0.553 ± 0.073 | -0.0723 ± 0.1 |
| CGCUAGCAAUAUUACGUACA | -2.62 ± 0.14 | -1.35 ± 0.15 |
| CGCUAGCAAUAUUACGUAUU | -3.85 ± 0.21 | -1.9 ± 0.18 |

| Sequence | self-splicing fitness (ln) (30 °C) | self-splicing fitness (ln) (37 °C) |
| --- | --- | --- |
| CGCUAGCAAUAUUACGUCGG | -1.6 ± 0.075 | -0.631 ± 0.12 |
| CGCUAGCAAUAUUACGUGAC | – | -2.52 ± 0.3 |
| CGCUAGCAAUAUUACGUGCA | -0.672 ± 0.095 | 0.116 ± 0.11 |
| CGCUAGCAAUAUUACGUGCG | -3.74 ± 0.26 | -2.4 ± 0.22 |
| CGCUAGCAAUAUUACGUGUU | -4.69 ± 0.29 | -3.17 ± 0.26 |
| CGCUAGCAAUAUUACGUUCG | -1.46 ± 0.067 | -0.781 ± 0.089 |
| CGCUAGCAAUAUUACGUUUG | -2.31 ± 0.085 | -0.505 ± 0.094 |
| CGGAAGCAAUAUUACGAGCU | -2.93 ± 0.21 | -3.07 ± 0.27 |
| CGGAAGCAAUAUUACGAGUG | -0.361 ± 0.05 | -0.0668 ± 0.075 |
| CGGAAGCAAUAUUACGCAUA | – | -1.12 ± 0.27 |
| CGGAAGCAAUAUUACGCCUC | -3.04 ± 0.27 | -2.89 ± 0.4 |
| CGGAAGCAAUAUUACGCUGU | -3.49 ± 0.15 | -1.3 ± 0.08 |
| CGGAAGCAAUAUUACGCUUA | – | -2.15 ± 0.32 |
| CGGAAGCAAUAUUACGGAAA | -1.12 ± 0.21 | -2.23 ± 0.29 |
| CGGAAGCAAUAUUACGGAGG | -1.25 ± 0.15 | -1.01 ± 0.21 |
| CGGAAGCAAUAUUACGGGAC | -3.5 ± 0.3 | – |
| CGGAAGCAAUAUUACGGGCA | -1.52 ± 0.16 | -1.6 ± 0.19 |
| CGGAAGCAAUAUUACGGGUG | -0.485 ± 0.09 | 0.544 ± 0.086 |
| CGGAAGCAAUAUUACGGGUU | -4.48 ± 0.26 | -2.77 ± 0.2 |
| CGGAAGCAAUAUUACGGUGG | -0.759 ± 0.099 | -0.586 ± 0.1 |
| CGGAAGCAAUAUUACGUAAA | -2.94 ± 0.21 | -1.79 ± 0.23 |
| CGGAAGCAAUAUUACGUCCU | 0.17 ± 0.12 | 0.626 ± 0.12 |
| CGGAAGCAAUAUUACGUCGA | -2.59 ± 0.19 | -1.67 ± 0.18 |
| CGGAAGCAAUAUUACGUGGC | -3.67 ± 0.18 | -2.54 ± 0.23 |
